Assay results from the supplement of paper PMC9170038.

What follows are sequences tested on K4 kissing-loop RNA reporter (assay: apparent KD of K4 kissing-loop reporter; higher = weaker reporter binding). Conditions: Eterna round: R107; input ligand: FMN 200 uM.
Method: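 RNA-MaP round R107: designed RNA switches with theophylline, tryptophan, arginine or FMN aptamers are transcribed on-chip within common flanks. They are titrated with a labelled K4 kissing-loop RNA reporter in RNA-MaP buffer (100 mM Tris pH 7.5, 80 mM KCl, 4 mM MgCl2), without ligand or with the indicated ligand. Median apparent KD per design.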
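Also: bound reporter read as fluorescence of individual clusters on recovered sequencing chips by microscopy, with normalized cluster intensities fitted with a binding model.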

Sequence | apparent KD of K4 kissing-loop reporter
GGCGGCUGCGCGGAAGCGCAGCCGGCCGAUACCAGCGCGACGGCGCGCCCUUGGCAGCGGCGCCGAGUGAUGUUCGGCCUGCCGU [#2 Same State - Theophylline A Attempt #21 (HarryS)] | 122 nM
UGUGAUGUGUAGUGUAAUGUUUUGCGGGAUACCAGAGUCUUUUUAUUCCCUUGGCAGCUUGAGUGAUGUUUGAUGCUGUUCUUGU [llmdmullin] | 519 nM
AACUGUCAAGGACAACAUUACUGAGGUGAUACCAGGUUUGAGAGGAUCCCUUGGCAGCACCAACUUGCAGUGAUGUUGCAAGUAA [BrourdMod 15 - Jieux - Exclusion - Theophylline A] | 243 nM
CGCAGUGAUGUUGCGAGUAGCUACAGGGAAGGAGCGUGCUAGAGCACAGGUAGGUCGCCCACGCAGUGAUGUUGUGUUAAAGGGU [Exclusion Arginine A GF 12] | 141 nM
UAUAUAGUGACGGCCGCCACUAUUGUGAUGUUAUUGUUAGAGUGAUGUUUUGUUGUUUAAUUUUGUAGGACCGGGUUAUAUGUUA [xxzsmullin] | 846 nM
CCACAAUAUGGAAGGAGCGCCAGUGAUGUUGGUGCUUGCUUUAGGUAAGACCGGCCUAUUUGGCAGGUAGGUCGCCAUAUUCAAC [Ageat] | 103 nM
GUGGCGGGCCAAGGAUAUAUUUUGGAGUGAUGUUGUUCAUUUAUUUGAGCUAGUGAUGUUGGUCGAAUAGAAGGUGGCCCGCCAC [whbob_Ex_FMNB__2th220] | 69.9 nM
AAGCCAUACUCGGCCGCCACUUACUUCGUUGCAGUGAUGUUGCACACGAAUCCGUCAUAGCAAAUAAGGACCGGGAGAUAUACCG [theeternabot_exclusion_KL_Trp_B_19] | 89.3 nM
CCAGAAUGAUGAGGAUGAUAAAUUACUGAAGGAGCGCAUAUAGUUGCAGGUAGGUCGCGGUGAAUAAGUAUAGUGAUGUUAUACC [SSArgA.Ab] | 595 nM
GCUAUGGUAGGAAGGAGCGCUUGCUCGGUCAUAAGAGUGAUGUUCGAGACCGAGCAUUUAUAGCAGGUAGGUCGCCUACUAUAGC [Arginine B K4 7] | 310 nM
CCAGGAUGAUGAGGAUGAUAAAUUACUGAAGGAGCGCAUAUAGUUGCAGGUAGGUCGCGGUGAAUAAGUAUAGUGAUGUUAUACC [SSArgA.Aa] | 379 nM
UCUCCAAAGUCGGCCGCCACUCCGGGCCCUAUAAAUGGGCGCAGUGAUGUUGCGGCUAGGCCUCUGAGGACCGGGACUUUGUAGA [Estiorquin] | 75.5 nM
UGAUUGGCGAAAGUAGUGAUGUUACGAAUAUAGGAUAUUAGAGGAAUAAGAAGGAUAAAGGAGAAAUAGGUAAAUUGUUGGUUGG [whbob_SS_FMNA__2th169] | 110 nM
ACGUCACGUAUACUCGUGGUUUCGAUCGAUACCAGUAGCGAGAGUUACCCUUGGCAGCGACAUGAGUGAUGUUCAUGUGCGAAGA [KL-XTheo-A3 #analogue] | 118 nM
GGCGCAGUGAUGUUGCGGGCCGAGAGUGAUACCAGCCGUAUUUGUGGCCCUUGGCAGCGCAGAACCAGUGAUGUUGGUUACUUGG [Same State Theophylline A GF 22] | 223 nM
AAAAUAAAGGAGUGAUGUUCCAUAACGGAUACCAGCCACGAAAGUGGCCCUUGGCAGCUGUGCCAGUGGACGAAUAACGUCCACA [#OpenEnded 6 #StaticStem #K4Early] | 164 nM
UGUCAUUGGUCGGCCGCCACUAGGACCGGGUUUUGCCUAGUGAUGUUAGUAUGAACGGCCGCCACUAGGACCGGGACCGAUGACU [KL-SSTryp-B26 #DoubleAptamer] | 468 nM
UCGCCCGAUGGAGAUACCAGCAGUUGUGCAGUGAUGUUGCACAAGUACUCGCUCCAUUGCUGCCCUUGGCAGCUCCCGGCAAACA [Enraed] | 93.3 nM
AUAUUACUAUACGAUACCAGCCCUAACACUAGUGACGCGGUAAUAGUGAUGUUGUAACCCGGCCCUUGGCAGCGUAAUCAUGGAA [theeternabot_sameState_KL_Theo_B_7] | 529 nM
UCUGGAGUAUAUGAUACCAGCAGUGAGAGACAGGAAGUAUAGUGAUGUUAUAUGAGAGAAUGCCCUUGGCAGCGUGUGCGGUGGC [SSTheophylB.Q] | 118 nM
GCACUACAAUAAGGAUAUCAUAAAAUGGAGAGCGAGUGAUGUUCGCAGAGACACCUAUUUUUCCUAUGAGAAGGUAUUAACGCCG [theeternabot_sameState_KL_FMN_B_40] | 97.8 nM
UUAGUCUAGAGAGGAUAUCAGUGAUGUUGAUAUCAAGAUCUAAGAUAGAAUUCUAUCUUAGAUCAAUGAGAAGGCUCUAGACAUU [AK1.1 Exc FMN B] | 993 nM

Sequence | apparent KD of K4 kissing-loop reporter
GUGUCCUAGUCGGCCGCCACUGGGUGCAAAAUAGAAGGAGCAUUGCACAUCAGUGAUGUUGAUGUCAGGACCGGGACUAGGGUGU [KL-SSTryp-B5 Brourdwalk1] | 652 nM
GGAUCCACCAGUGAUGUUGGAAAAUACUCCAAGGAUAUGACGAAAGUCAGAAGGUGGUAGACUGGACAAAGUCCAGUCGGAUCCA [FmnA 27 #SwitchBubble #K4Early] | 531 nM
GGGAGCAAAGCUCCCGGAUGCUAUUACCAGUAGGAUAUCUGGAAACAGAGAAGGGCUAAGCCAGUGAUGUUGGUUUCGAGCAUCC | 596 nM
AACGUUUUGAGAAGGAGCGCGUUAAGCAGUGAUGUUGCUUUAUUAUAUUUACUACAUAUUUCGCAGGUAGGUCGCUCAAUACGUA [JR_Nu_SSArginiB_Sub025] | 154 nM
CGUAGCAGACGAAGGAGCGGCUACCUGAUUCAAGGUGAUGCUUGAGUGAUGUUCAGGUGUAGCCAGGUAGGUCGCGUCUGCUACG [Arg B Ex t9] | 201 nM
AAUAUCUAGUAUAUUUUUAAUAAAACAGAUACCAGUGAUAAUAGACACCCUUGGCAGCUGGUCGAGUGAUGUUCGUUUAUAUUAA [JR_SSTheophyA_Sub006] | 85.5 nM
CGCAAGCAGCCAGUGAUGUUGGCCGCCUUGCGAGGACCGGUACGGCCGCCACUCGAAGGCGGCUACUAGUAAACCGCCUAACGGA [KL-XTryp-A17] | 105 nM
AAUGCAUAGUGAAGGAGCGCGAUUUGCAGUGAUGUUGCAAAUUUAAACAAUCUUAUCUUUUCGCAGGUAGGUCGCACUAUGCAUA [JR_Nu_SSArginiB_Sub021] | 94.1 nM
UAACUCUUGCAGUGAUGUUGCAAGUAUGCUCAGGAUAUCAGGAAACUGAGAAGGGAGUUUCCUGAGCUUCUGCAAGAGCUCAGAA [KL-SSFMN-A6] | 618 nM
AAGUGGGAACGGCCCAAUAAAGUGUUUGUCAAGGAUAUUAUUCACAUAAGAAGGUGACAGACCACCUCCGGAGUGAUGUUUUGGA [theeternabot_sameState_KL_FMN_A_42] | 581 nM
AAAAUAAGCCAGUGAUGUUGGUAUGCAGAUACCAGCGACGAAAGUCGCCCUUGGCAGCUGUGGACGUACAAAAUAAGUACGUCCU | 253 nM
GGUCGAGUGAUGUUCGAUGUAGUGCAUUCAGAGGAUAUAGGAUGGGCUAGAAGGCUGAAAGGUGCUUCGAGUGAUGUUCGAGGAU [Exclusion FMN A GF 3] | 105 nM
UUGUUUGGUUGAGAGGUUGGGCGAGAUGAUACCAGUAGAUAAGAAUACCCUUGGCAGCAUAAGAAAGAUAUAGUGAUGUUGUAUA [SSTheophA.N] | 566 nM
AAGCAGUUCUCAAAGAGUACUGCAGGACAGCAGGAUAUAGUGAUGUUGAGAAGGGCUGUCCCGUCUGCAUGAAACAUGCAGACGA [Simply curious] | 1350 nM
AAGCAGUCAGGAUCGAAGAUCCUGCAAUACCGAGGACCGGUACGGCCGCCACUCGGAGUGAUGUUCCGAAGACUGCAAAAUAAAA [#SwitchBubble 7] | 436 nM
GGUAGCAUGGCGGCCGCCACUGAGGCCCUAUGCGAGUCCUCUACAACCUAGUGAUGUUAGGCGUCCAGGACCGGGCCAUGCUACC | 95.7 nM
CGAUACGGAAAUACGUGUCUCUAUUCAGAAGGAGCGUGGUAGUACACAGGUAGGUCGCUGAAUUUUAAACUAGUGAUGUUAGUCU [JR_SSArginiA_Sub005] | 317 nM
UAUCUAUGCUCGGCCGCCACUAGGACCGGGUAGUCUCUAGUGAUGUUAGUCUCUACGGCCGCCACUAGGACCGGGAGUGUAGAUA [KL-SSTryp-B16 #DoubleAptamer] | 286 nM
CGCCGUAAGGCGGUCGCUCCCACUCCGGAAGGAGCGCCCGGAAGGGCAGGUAGGUCGCCGGAGUGAUGUUCCGGUGGAGGGACCG [#2 Exclusion - Arginine A Attempt #9 (Inspired by Omei)] | 587 nM
UCGCCGCUCACGGCCGCCACUAAGCCCAAGACCAGAGAGUGAUGUUCUAUCCACGUUUCAAUUUUUAGGACCGGGUGAAAGGCGA [theeternabot_sameState_KL_Trp_B_14] | 779 nM
UGUGUUGUUUUGAUGUUUGGUGUUGCAUGGCAGGAUAUCGUAGAGGCGAGAAGGGCUUGUGAGCGGUAUGAGUGAUGUUUGUAGG [bbgbmullin] | 433 nM

Same assay, conditions: Eterna round: R107; input ligand: arginine 13.2 mM

Sequence | apparent KD of K4 kissing-loop reporter
GGCGGCUGCGCGGAAGCGCAGCCGGCCGAUACCAGCGCGACGGCGCGCCCUUGGCAGCGGCGCCGAGUGAUGUUCGGCCUGCCGU [#2 Same State - Theophylline A Attempt #21 (HarryS)] | 82.2 nM
UGUGAUGUGUAGUGUAAUGUUUUGCGGGAUACCAGAGUCUUUUUAUUCCCUUGGCAGCUUGAGUGAUGUUUGAUGCUGUUCUUGU [llmdmullin] | 351 nM
AACUGUCAAGGACAACAUUACUGAGGUGAUACCAGGUUUGAGAGGAUCCCUUGGCAGCACCAACUUGCAGUGAUGUUGCAAGUAA [BrourdMod 15 - Jieux - Exclusion - Theophylline A] | 211 nM
CGCAGUGAUGUUGCGAGUAGCUACAGGGAAGGAGCGUGCUAGAGCACAGGUAGGUCGCCCACGCAGUGAUGUUGUGUUAAAGGGU [Exclusion Arginine A GF 12] | 116 nM
UAUAUAGUGACGGCCGCCACUAUUGUGAUGUUAUUGUUAGAGUGAUGUUUUGUUGUUUAAUUUUGUAGGACCGGGUUAUAUGUUA [xxzsmullin] | 451 nM
CCACAAUAUGGAAGGAGCGCCAGUGAUGUUGGUGCUUGCUUUAGGUAAGACCGGCCUAUUUGGCAGGUAGGUCGCCAUAUUCAAC [Ageat] | 89.5 nM
GUGGCGGGCCAAGGAUAUAUUUUGGAGUGAUGUUGUUCAUUUAUUUGAGCUAGUGAUGUUGGUCGAAUAGAAGGUGGCCCGCCAC [whbob_Ex_FMNB__2th220] | 27.2 nM
AAGCCAUACUCGGCCGCCACUUACUUCGUUGCAGUGAUGUUGCACACGAAUCCGUCAUAGCAAAUAAGGACCGGGAGAUAUACCG [theeternabot_exclusion_KL_Trp_B_19] | 89.3 nM
CCAGAAUGAUGAGGAUGAUAAAUUACUGAAGGAGCGCAUAUAGUUGCAGGUAGGUCGCGGUGAAUAAGUAUAGUGAUGUUAUACC [SSArgA.Ab] | 327 nM
GCUAUGGUAGGAAGGAGCGCUUGCUCGGUCAUAAGAGUGAUGUUCGAGACCGAGCAUUUAUAGCAGGUAGGUCGCCUACUAUAGC [Arginine B K4 7] | 194 nM
